This is an account of results in patent US20150037348A1 (AbbVie / Abbott, published 2015).

Assay [1] deals with T1, recombinant human IL-12 (rhIL-12) (human, UniProt P29459 23-219; P29460 23-328).
T1 construct: disulfide-linked p35/p40 heterodimer (p70); also called IL-12 p70; rec. human IL12
T1 sequence (looked up) 1: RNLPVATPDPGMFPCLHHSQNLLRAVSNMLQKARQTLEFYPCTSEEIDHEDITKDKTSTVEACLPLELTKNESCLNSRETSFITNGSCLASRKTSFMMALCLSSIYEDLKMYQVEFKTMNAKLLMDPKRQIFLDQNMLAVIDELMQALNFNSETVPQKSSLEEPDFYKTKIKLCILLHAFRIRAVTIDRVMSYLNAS
T1 sequence (looked up) 2: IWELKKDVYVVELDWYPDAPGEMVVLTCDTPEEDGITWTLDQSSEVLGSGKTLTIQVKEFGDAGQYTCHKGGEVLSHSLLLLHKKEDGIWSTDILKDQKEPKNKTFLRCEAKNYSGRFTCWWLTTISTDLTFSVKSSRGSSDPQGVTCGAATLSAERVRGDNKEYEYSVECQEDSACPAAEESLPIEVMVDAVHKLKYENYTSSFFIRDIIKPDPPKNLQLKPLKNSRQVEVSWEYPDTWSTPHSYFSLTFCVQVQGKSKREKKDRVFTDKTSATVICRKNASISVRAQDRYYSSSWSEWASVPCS
The experiment in a line: BIAcore SPR, rhIL-12. The protocol: (§1) Before injection of the protein and immediately afterward, HBS buffer alone flowed through each flow cell. […] Cytokines were diluted in HBS running buffer and 50 μl aliquots were injected through the immobilized protein matrices at a flow rate of 5 μl/min. […] The net difference in baseline signal and signal after completion of cytokine injection was taken to represent the binding value of the particular sample. Biosensor matrices were regenerated using 100 mM HCl before injection of the next sample. To determine the dissociation constant (off-rate), association constant (on-rate), BIAcore kinetic evaluation software (version 2.1) was used.
Kd was calculated for each separate experiment and then averaged.
In general terms: Surface plasmon resonance follows binding to a sensor surface in real time, without labels.

Assay [2] has as its target T1, recombinant human IL-12 (rhIL-12). As to the kind of experiment: cell-based or functional assay.
The target is the same in assay [3]. The experiment in a line: cell-based or functional assay. The source holds these as a separate data set.
Assay [4] has the same target. As to the kind of experiment: BIAcore, captured J695, soluble rhIL-12, average. The protocol:
as §1

Assay [5] shares this target. As to the kind of experiment: receptor binding assay, 125I-hIL-12 on PHA blasts.
Assay [6] addresses T2, murine IL-12 (mouse, UniProt P43431 23-215; P43432 23-335).
T2 construct: Purified or recombinant murine IL-12 (R&D Systems, Cat. No. 419-ML in the BIAcore test); also called mouse IL-12; rmIL12
T2 sequence (looked up) 1: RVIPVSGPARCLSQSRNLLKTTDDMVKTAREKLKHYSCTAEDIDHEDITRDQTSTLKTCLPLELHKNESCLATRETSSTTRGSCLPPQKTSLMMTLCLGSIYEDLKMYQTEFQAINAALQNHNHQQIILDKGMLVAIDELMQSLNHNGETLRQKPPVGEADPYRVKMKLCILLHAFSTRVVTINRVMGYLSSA
T2 sequence (looked up) 2: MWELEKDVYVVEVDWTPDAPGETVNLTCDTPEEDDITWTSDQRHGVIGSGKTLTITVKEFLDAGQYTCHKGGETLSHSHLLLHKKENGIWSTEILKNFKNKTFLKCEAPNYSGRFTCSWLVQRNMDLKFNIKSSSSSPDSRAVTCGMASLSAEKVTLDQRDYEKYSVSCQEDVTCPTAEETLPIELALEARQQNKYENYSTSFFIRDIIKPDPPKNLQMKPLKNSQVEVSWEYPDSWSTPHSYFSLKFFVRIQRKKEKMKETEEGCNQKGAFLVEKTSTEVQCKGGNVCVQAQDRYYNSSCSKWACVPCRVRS
As to the kind of experiment: neutralization bioassay with non-human IL-12 (murine 2D6 cell proliferation). As to the method: 2D6 cells were washed once and resuspended in RPMI complete medium containinγβME to a cell density of 1×10⁵ cells/ml. […] The culture contents were harvested and counted by liquid scintillation counting. All samples were assayed in duplicate.

Assay [7] concerns the target T3, human IL-12 p40 subunit (free p40) (human, UniProt P29460 23-328).
T3 sequence (looked up): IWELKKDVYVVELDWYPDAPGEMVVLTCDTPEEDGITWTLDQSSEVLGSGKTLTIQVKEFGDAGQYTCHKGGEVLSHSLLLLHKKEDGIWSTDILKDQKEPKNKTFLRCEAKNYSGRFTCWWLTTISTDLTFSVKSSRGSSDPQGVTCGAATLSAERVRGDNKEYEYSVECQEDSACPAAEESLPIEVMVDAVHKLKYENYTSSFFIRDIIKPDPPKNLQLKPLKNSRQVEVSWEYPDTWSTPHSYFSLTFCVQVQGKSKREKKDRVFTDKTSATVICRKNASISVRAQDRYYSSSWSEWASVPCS
As to the kind of experiment: competition ELISA: soluble human IL-12 p40 (2 nM) against J695 binding to immobilized human IL-12. The protocol: The plates were washed 4 times and incubated for 1 h at room temperature with 100 μl mouse anti-human lambda-HRP (1:500 in PBS-T/BSA, Southern Biotech. Ass. Inc., Birmingham, Ala.). The plates were washed 4 times and developed with ABTS (Kirkegaard & Perry Lab, Gaithersburg, Md.) for 20-30 minutes in the dark. The OD₄₅₀ nm was read using a microplate reader (Molecular Devices, Menlo Park, Calif.).
(An ELISA detects its analyte on a solid surface through an enzyme-linked reagent.)

Where “and” joins values, the source holds several entries; their conditions need not be identical. Identical values can stand only once.

B1: J695 (antibody, human IgG1, V domains shown)
VH: QVQLVESGGGVVQPGRSLRLSCAASGFTFSSYGMHWVRQAPGKGLEWVAFIRYDGSNKYYADSVKGRFTISRDNSKNTLYLQMNSLRAEDTAVYYCKTHGSHDNWGQGTMVTVSS
VL: QSVLTQPPSVSGAPGQRVTISCSGSRSNIGSNTVKWYQQLPGTAPKLLIYYNDQRPSGVPDRFSGSKSGTSASLAITGLQAEDEADYYCQSYDRYTHPALLFGTGTKVTVLG
notes: human IgG1 with lambda light chain
With B1, the Kd (commonly a measure of binding affinity in units of concentration) in assay [1] was 119 pM and 149 pM. Moreover, in assay [2], the “IFN gamma IC50” value came to 5 pM and the “PHA assay IC50” value turned out to be 10 pM. In addition, in assay [3], the “IFN-γ Assay IC50” value is 5.8 pM and 4.3 pM; the “PHA blast Assay IC50” value was 5.5 pM and 4.4 pM. The Kd in assay [4] was 134 pM and 97.4 pM. Besides, the IC50 (usually the concentration at which inhibition is half-maximal) in assay [5] came to 11 pM.

B2: J695 (antibody, V domains shown)
VH: QVQLVESGGGVVQPGRSLRLSCAASGFTFSSYGMHWVRQAPGKGLEWVAFIRYDGSNKYYADSVKGRFTISRDNSKNTLYLQMNSLRAEDTAVYYCKTHGSHDNWGQGTMVTVSS
VL: QSVLTQPPSVSGAPGQRVTISCSGSRSNIGSNTVKWYQQLPGTAPKLLIYYNDQRPSGVPDRFSGSKSGTSASLAITGLQAEDEADYYCQSYDRYTHPALLFGTGTKVTVLG
notes: Human IgG1 with lambda light chain (detected with anti-human lambda); Made in CHO or COS cells
In the case of B2, the binding result in assay [6] is reported as “no binding”; in assay [7] it was “binds”.
